Data reported in patent publication EP4707304A1 (Axcynsis Therapeutics Pte. Ltd., dated 2024).

T1: VLP-hCLDN6 (human, UniProt P56747 1-220)
T1 construct: also called VLP-CLDN6; AT-003-ag1
T1 sequence: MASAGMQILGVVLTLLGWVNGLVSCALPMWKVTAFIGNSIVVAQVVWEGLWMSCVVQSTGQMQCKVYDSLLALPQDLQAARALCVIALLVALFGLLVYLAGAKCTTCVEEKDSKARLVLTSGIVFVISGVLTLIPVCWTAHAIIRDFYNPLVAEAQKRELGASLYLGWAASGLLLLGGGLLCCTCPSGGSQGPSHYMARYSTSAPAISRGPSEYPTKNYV

B1: murine/human chimeric antibody cAb-3 (antibody, V domains shown)
VH: EVKLVESGGGLVKPGGSLKLSCAASGFTFNDYTMSWVRQTPAKRLEWVVTISSGGGRTYYPDSVKGRFTISRDNARNTLYLQMSSLRSEDTAMYYCIRGDYRYDGFAYWGQGTLVTVST
VL: DIQMTQSPASLSASVGETVTITCRASENIDSYLAWYQQKQGKSPQLLVYASTLLVDGVPSRFSGSRSGTQFSLKINSLQSEDVARYYCQHYYSIPYTFGSGTKLEIK
notes: also called cAb-1 with S31D
B2: murine/human chimeric antibody cAb-1 (antibody, V domains shown)
VH: EVKLVESGGGLVKPGGSLKLSCAASGFTFNSYTMSWVRQTPAKRLEWVVTISSGGGRTYYPDSVKGRFTISRDNARNTLYLQMSSLRSEDTAMYYCIRGDYRYDGFAYWGQGTLVTVST
VL: DIQMTQSPASLSASVGETVTITCRASENIDSYLAWYQQKQGKSPQLLVYASTLLVDGVPSRFSGSRSGTQFSLKINSLQSEDVARYYCQHYYSIPYTFGSGTKLEIK
notes: also called VH0/VL0
B3: murine/human chimeric antibody cAb-2 (antibody, V domains shown)
VH: EVKLVESGGGLVKPGGSLKLSCAASGFTFNEYTMSWVRQTPAKRLEWVVTISSGGGRTYYPDSVKGRFTISRDNARNTLYLQMSSLRSEDTAMYYCIRGDYRYDGFAYWGQGTLVTVST
VL: DIQMTQSPASLSASVGETVTITCRASENIDSYLAWYQQKQGKSPQLLVYASTLLVDGVPSRFSGSRSGTQFSLKINSLQSEDVARYYCQHYYSIPYTFGSGTKLEIK
notes: also called cAb-1 with S31E
B4: murine/human chimeric antibody cAb-18 (antibody, V domains shown)
VH: EVKLVESGGGLVKPGGSLKLSCAASGFTFNSYTMSWVRQTPAKRLEWVVTISSGGGRTYYPDSVKGRFTISRDNARNTLYLQMSSLRSEDTAMYYCIRGDYRYDKFAYWGQGTLVTVST
VL: DIQMTQSPASLSASVGETVTITCRASENIDSYLAWYQQKQGKSPQLLVYASTLLVDGVPSRFSGSRSGTQFSLKINSLQSEDVARYYCQHYYSIPYTFGSGTKLEIK
notes: also called cAb-1 with G100K
B5: humanized antibody hAb-44 (antibody, V domains shown)
VH: EVKLVESGGGLVKPGGSLRLSCAASGFTFNDYTMSWVRQAPGKRLEWVVTISSGGGRTYYPDSVKGRFTISRDNAKNSLYLQMNSLRAEDTAVYYCIRGDYRYDAFAYWGQGTLVTVSS
VL: DIQMTQSPSSLSASVGDRVTITCRASENIDSYLAWYQQKPGKSPQLLVYASTLLQDGVPSRFSGSRSGTDFTLTISSLQPEDVATYYCQHYYSIPYTFGSGTKLEIK
notes: also called VH6VL5
B6: humanized antibody hAb-49 (antibody, V domains shown)
VH: EVQLVESGGGLVKPGGSLRLSCAASGFTFNDYTMSWVRQAPGKRLEWVVTISSGGGRTYYPDSVKGRFTISRDNAKNSLYLQMNSLRAEDTAVYYCIRGDYRYDAFAYWGQGTLVTVSS
VL: DIQMTQSPSSLSASVGDRVTITCRASENIDSYLAWYQQKPGKSPQLLVYASTLLVDGVPSRFSGSRSGTQFSLTISSLQPEDVARYYCQHYYSIPYTFGSGTKLEIK
notes: also called VH8VL4
B7: humanized antibody hAb-46 (antibody, V domains shown)
VH: EVQLVESGGGLVKPGGSLRLSCAASGFTFNDYTMSWVRQAPGKRLEWVVTISSGGGRTYYPDSVKGRFTISRDNAKNSLYLQMNSLRAEDTAVYYCIRGDYRYDAFAYWGQGTLVTVSS
VL: DIQMTQSPSSLSASVGDRVTITCRASENIDSYLAWYQQKPGKSPQLLVYASTLLQDGVPSRFSGSRSGTDFTLTISSLQPEDVATYYCQHYYSIPYTFGSGTKLEIK
notes: also called VH8VL5
B8: humanized antibody hAb-45 (antibody, V domains shown)
VH: EVQLVESGGGLVKPGGSLRLSCAASGFTFNDYTMSWVRQAPGKRLEWVVTISSGGGRTYYPDSVKGRFTISRDNAKNTLYLQMSSLRAEDTAVYYCIRGDYRYDAFAYWGQGTLVTVSS
VL: DIQMTQSPSSLSASVGDRVTITCRASENIDSYLAWYQQKPGKSPQLLVYASTLLQDGVPSRFSGSRSGTDFTLTISSLQPEDVATYYCQHYYSIPYTFGSGTKLEIK
notes: also called VH7VL5
B9: humanized antibody hAb-47 (antibody, V domains shown)
VH: EVKLVESGGGLVKPGGSLRLSCAASGFTFNDYTMSWVRQAPGKRLEWVVTISSGGGRTYYPDSVKGRFTISRDNAKNSLYLQMNSLRAEDTAVYYCIRGDYRYDAFAYWGQGTLVTVSS
VL: DIQMTQSPSSLSASVGDRVTITCRASENIDSYLAWYQQKPGKSPQLLVYASTLLVDGVPSRFSGSRSGTQFSLTISSLQPEDVARYYCQHYYSIPYTFGSGTKLEIK
notes: also called VH6VL4
B10: humanized antibody hAb-48 (antibody, V domains shown)
VH: EVQLVESGGGLVKPGGSLRLSCAASGFTFNDYTMSWVRQAPGKRLEWVVTISSGGGRTYYPDSVKGRFTISRDNAKNTLYLQMSSLRAEDTAVYYCIRGDYRYDAFAYWGQGTLVTVSS
VL: DIQMTQSPSSLSASVGDRVTITCRASENIDSYLAWYQQKPGKSPQLLVYASTLLVDGVPSRFSGSRSGTQFSLTISSLQPEDVARYYCQHYYSIPYTFGSGTKLEIK
notes: also called VH7VL4

Target: T1, VLP-hCLDN6
Assay: ELISA, VLP-CLDN6 coated 400 ng/well, 4-fold serial dilution, HRP goat anti-human IgG Fc

| Binder | EC50 [nM] |
| --- | --- |
| B1 | 0.26 |
| B2 | 0.59 |
| B3 | 0.52 |
| B4 | 0.58 |

Target: T1, VLP-hCLDN6
Assay: ELISA on coated VLP-hCLDN6

| Binder | EC50 [nM] |
| --- | --- |
| B5 | 6.67 |
| B6 | 0.07 |
| B7 | 6.55 |
| B8 | 4.84 |
| B9 | 0.11 |
| B10 | 0.13 |
| B2 | 0.59 |
